# Data: paper PMC5574551
# Key:
# [1] = target: taxol-stabilized microtubules (porcine brain tubulin) (porcine) (UniProt P02550); assay: single molecule observation (TIRF microscopy); 1 nM GFP-labeled dynactin isoform, mutant or fragment alone on taxol-stabilized microtubules held on glass; SM buffer, 1 mM ATP, 25°C; total residence time in a window of 10 s and 10 μm of microtubule
# [2] = target: taxol-stabilized microtubules (porcine brain tubulin) (porcine) (UniProt P02550); assay: single molecule observation (TIRF microscopy); as a2, 1 nM Alexa 647-labeled dynein with 2 nM p135 isoform
# [3] = target: taxol-stabilized microtubules (porcine brain tubulin) (porcine) (UniProt P02550); assay: single molecule observation (TIRF microscopy); as a2, 1 nM Alexa 647-labeled dynein with 2 nM 1BΔCC1 mutant
# [4] = target: taxol-stabilized microtubules (porcine brain tubulin) (porcine) (UniProt P02550); assay: single molecule observation (TIRF microscopy); as a2, 1 nM Alexa 647-labeled dynein with 2 nM 1A isoform, no BICD2
# [5] = target: taxol-stabilized microtubules (porcine brain tubulin) (porcine) (UniProt P02550); assay: single molecule observation (TIRF microscopy); as a2, 1 nM Alexa 647-labeled dynein with 2 nM 1B isoform, no BICD2
# [6] = target: taxol-stabilized microtubules (porcine brain tubulin) (porcine) (UniProt P02550); assay: single molecule observation (TIRF microscopy); as a2, 1 nM Alexa 647-labeled dynein with 20 nM BICD2 (full length), no dynactin
# [7] = target: taxol-stabilized microtubules (porcine brain tubulin) (porcine) (UniProt P02550); assay: single molecule observation (TIRF microscopy); as a2, 1 nM Alexa 647-labeled dynein with 2 nM 1A isoform and 20 nM BICD2 (DDB 1A)
# [8] = target: taxol-stabilized microtubules (porcine brain tubulin) (porcine) (UniProt P02550); assay: single molecule observation (TIRF microscopy); as a2, 1 nM Alexa 647-labeled dynein with 2 nM 1B isoform and 20 nM BICD2 (DDB 1B)
# [9] = target: dynactin complex containing the DCTN1B (1B) isoform (human (cDNA from HEK293 cells) | human (endogenous in HEK293)) (UniProt Q13561); assay: pull-down; TALON Dynabeads pull-down of purified proteins; dynein and dynactin mixed in 10 mM Pipes-NaOH pH 7.0, 75 mM NaCl, 45 mM imidazole, 0.01% Tween 20, 10 min at 25°C; bound and unbound fractions on SDS-PAGE, dynein heavy chain band quantified by densitometry
# [10] = target: taxol-stabilized microtubules (porcine brain tubulin) (porcine) (UniProt P02550); assay: single molecule observation (TIRF microscopy); 1 nM Alexa 647-labeled dynein alone on taxol-stabilized microtubules held on glass by anti-β tubulin antibody; SM buffer (12 mM Pipes-KOH pH 6.8, 25 mM KAce, 1 mM ATP, 2 mM DTT), 25°C; total residence time in a window of 10 s and 10 μm of microtubule
Substance,total residence time on microtubules [1] [s],total residence time on microtubules (with p135 isoform) [2] [s],total residence time on microtubules (with 1BΔCC1 mutant) [3] [s],fraction not dissociated from microtubules during the observation of 30 s (with 1A isoform) [4] [%],total residence time on microtubules (with 1A isoform) [4] [s],"duration on microtubules, τ (with 1B isoform) [5] [s]",total residence time on microtubules (with 1B isoform) [5] [s],total residence time on microtubules (with BICD2) [6] [s],total residence time on microtubules (with 1A isoform and BICD2) [7] [s],total residence time on microtubules (with 1B isoform and BICD2) [8] [s],Kd [9] [nM],stoichiometry N [9],total residence time on microtubules [10] [s],fraction not dissociated from microtubules during the observation of 30 s [1] [%]
dynactin complex containing the 1BΔCC1 mutant of DCTN1 (from UniProt P61163 1-376),50,,,,,,,,,,,,,
"cytoplasmic dynein (recombinant dynein complex), Q14204 1-4646",,23.8,54,79,53.2,1.2,4.7,51.8,49.1,19.2,2.3,1,64.9,
dynactin complex containing the DCTN1A (1A) isoform (from UniProt Q14203-1 1-1278; Q13561 1-401; P61163 1-376),60.1,,,,,,,,,,,,,72
